Test results as given in patent US20240043859A1, “HERBICIDE-RESISTANT PROTEIN, AND GENE AND USE THEREOF” (QINGDAO KINGAGROOT CHEMICAL COMPOUND CO., LTD., priority 2020, published 2024).
Entries after “also recorded” stand apart in the source; their conditions may differ.

B1: QYD72: AAD-like enzyme, SEQ ID NO. 143 (protein)
chain: MAADAPFVVKPLPASFGAVVTGLALADLDEAAFAALYRTWLDYALLIFPGQHLDRDQQIAFARRFGPLEFDIAPISNVRSDGSVRPDDDADDVVKVLKGNMGWHCDSTYMPVQAKGAVFTAHVVPEDGGETDWADMRAAYDALDPAMRRRIEGLSAYHSLRHSQGKLGHVHKPGSAYSGYGMTVEAPPLRPLVKVHPETSRKTLMVGRHAYGIPGFEDAESERLLDELADFACRPPRTWRHSWTPGDAVIWDNRALMHRACPWDMTRPRVMYHSRLAGDPVAEFAAPA
modifications: Synthetic polypeptide, QYD72, D72
B2: QYD34: AAD-like enzyme, SEQ ID NO. 67 (protein)
chain: MSMQVIPLDATFGATVTGLKLSELDEAVFAEIYDHWLRYSLLVFPGQNLDNEQQVTFAKRFGALEIDLVELSNVKDDGSLRTAPDDDRIKILKGNMGWHHDSTYMPVQAKGAVFRADTVPSHGGETGWADMCAAYDALGDAMRNRIEGLSAHHSLTYSQGKAGFKHKDKDSEYNGYGLDQDGAPLRPLVKTHAETGRKTLTIGRHAHAVPGLSQADSEALLTELVDFACQPPRIYHHGWQPGDVVVWDNRCLMHQACPWDMAERRVMFHSRLAGDPEHEFAAPN
modifications: Synthetic polypeptide, QYD34, D34
B3: QYD73: AAD-like enzyme, SEQ ID NO. 145 (protein)
chain: MARTFDVQPLDATFGAVISGVKLAALDDETWRELYATWLQYALLVFPGQHLSRDQQIAFARRFGPLEFEIIALSNVKSDGTIRSEVENDDVIKVLKGNMGWHADSTYMPVQAKGAVFTAEVVPSVGGQTGWADMRAAYDALDGATRQKVEQLSAYHSLHYSQSKLGHQHKPGSAYSGYGFHDGPVPLRPLVKTHPETGRKSLLIGRHAHNIPGMDKDESARFLEDLVASACQPPRIYHHTWAAGDAVVWDNRCLLHQATPWDMTQPRVMWHSRIAGDPLSEAALG
modifications: Synthetic polypeptide, QYD73, D73
B4: QYD74: AAD-like enzyme, SEQ ID NO. 147 (protein)
chain: MARAFDIEPLDATFGAIITGVKLAALDDAVWRDLYAAWLEYALLIFPSQNLGRDEQIAFAKRFGALEFELAPISNVNSDGTLITDPDNDILKVLKGNMGWHSDSTYMPIQAKGAVFSARVVPKSGGSTGWADMRAAYDALDDNLKRKVERLAAHHSLRYSQAKLGHFPKKHSAYSGYGFHDGPEPLRPLVKTHPETGRKSLLIGRHAHNIPGMSAEESERFLQELVDFACRPPRVYHHEWTAGDVAVWDNRCLLHQATPWDMSEPRVMWHSRIAGDPTTESALA
modifications: Synthetic polypeptide, QYD74, D74
B5: QYD76: AAD-like enzyme, SEQ ID NO. 151 (protein)
chain: MARMFDIAPLDATFGAVVTGVKVTRIDDATWRDLHAAWLEYALLIFPGQFLSRAEQIAFAKRFGPLEFEMAPISNVKADGTIRIEADNDDVVKVLKGNMGWHADSTYMPVQAKGAVFSAEVVPGEGGRTGWADMRAAYDALDAARRVRVESLTAYHSLYYSQAKLGHQPKRGSDYSGYGFHDGPVPRRPLVKVHPETGRKSLLIGRHAHNIPGMDVAESTQFLESLVDFACQPPRIYHHQWTAGDAVVWDNRCLLHRATPWDMTKPRVMWHSRIAGDPVSEASLG
modifications: Synthetic polypeptide, QYD76, D76
B6: QYD50: AAD-like enzyme, SEQ ID NO. 99 (protein)
chain: MEEPDMARTLGIEPLAGTTFGAVVKGVKVTALDDATWRELHAAWLQYALLIFPDQHLKRAEQIAFARRFGPLEFEMAAISNVKADGSLRIEADNDDVMKILKGNMGWHCDSTYMPVQAKGAVFSAEVVPSIGGRTGFADMRAAWDALDDALKARIETLSAYHSLHHSQSKLGHQTNKRDGEYSGYGLHDGPVPLRQLVKVHPETGRKSLLIGRHAHNIPGMDKADSERLLQELVDFACQPPRIYHHDWAAGDAVVWDNRCLLHQATPWDMTQPRVMWHSRIAGDPRSEAALGGSAVSAAASG
modifications: Synthetic polypeptide, QYD50, D50
B7: QYD58: AAD-like enzyme, SEQ ID NO. 115 (protein)
chain: MARTFDIEPLAGTTFGAVVRGMKVAILDDAGWRDLYAAWLKYALLVFPGQHLKRDEQIAFAKRFGALEFEMAALSNVKSDGTLRQEKDNDDMMKILKGNMGWHADSTYMPVQAKGAVFSAEIVPGAGGQTGFADMRAAYDALDAGRKAKVERLAAHHSLHYSQSKLGHQTKKQDGEYSGYGLHDGPVPLRPLVKTHPETGRKSLLIGRHAHNIPGMDKAESERLLQELVDFACQPPRVYHHDWTAGDAVVWDNRCLLHQATPWDMTQPRVMWHSRIAGDPRSEAALGVTAVSAAASG
modifications: Synthetic polypeptide, QYD58, D58

Columns and labels:
[1] = Chromogenic reaction of degrading herbicides in bacteria: triclopyr; type: cell-based, Escherichia coli; conditions: recombinant E. coli expressing the gene
Protocol: (§1) To transform the plasmids to be tested, an AAD12-expressing plasmid and a blank control plasmid pET15b were respectively transformed into the protein expression E. coli BL21(DE3) strains. A monoclone was selected and inoculated in a 10 ml centrifuge tube with 3 ml LB medium, and cultivated at 37° C., 200 rpm for 6-8 hours. […] The temperature was switched to 28° C. and the cultivation continued overnight. In the next morning, 200 μL of each bacteria solution was taken and centrifuged to precipitate thallus, 180 μL of the supernatant was taken and added in a 96-well plate, and 20 μL of borate buffer of pH 10 was added. Then the mixture was added with 2 μL of 8% potassium ferricyanide and mixed well, followed by adding 2 μL of 2% 4-aminoantipyrine, and placed at room temperature for 5 min to observe the color and detect the A510 value. […]

[2] = Chromogenic reaction of degrading herbicides in bacteria: 2,4-D; type: cell-based, Escherichia coli; conditions: recombinant E. coli expressing the gene, 2,4-D added to the medium, red = phenols
Summary of the method: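 Colour from 2,4-D degradation was detected at A510 after 5 min at room temperature, with 4-aminoantipyrine and ferricyanide added to culture supernatant in pH 10 borate. Cultures were AAD12-expressing or empty-vector (pET15b) BL21(DE3), grown overnight at 28 °C with 0.5 mM 2,4-D, 0.1 mM IPTG and 2 mM α-ketoglutarate.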

[3] = type: cell-based, Escherichia coli
Protocol: as §1

Arabidopsis thaliana = test: Herbicide resistance of transgenic Arabidopsis thaliana seedlings on plate medium (root growth); type: in vivo; conditions: Arabidopsis overexpressing the gene
Protocol: Expression in Arabidopsis thaliana was regulated by its AtUbi10 Arabidopsis thaliana ubiquitin promoter and the MAS (mannopine synthase) terminator. Hygromycin resistance gene (HygR=hpt) served as the selection marker.
Preparation of Agrobacterium infection solution: An activated Agrobacterium (GV3101) monoclone was picked and inoculated in 30 ml YEP liquid medium [yeast powder 10 g/L, tryptone 10 g/L, NaCl 5 g/L, 25 mg/L Rifampicin and 50 mg/L Kanamycin], shaking-cultured at 200 rmp/min, 28° C. overnight until the OD600 was about 1.0-1.5, then centrifuged at 6000 rmp/min for 10 min to collect the bacteria, and the supernatant was discarded. Arabidopsis thaliana infection solution (sucrose 50 g/L, Silwet L-77 300 μL/L, no need to adjust pH) was used to resuspend the cells to OD600=0.8 for later use.
Genetic transformation of Arabidopsis thaliana by flower dipping: Before transformation of Arabidopsis thaliana plants, attentions were paid to whether the plants were growing well, the inflorescences were abundant, and no stress response occurred. The first transformation was performed when plants were about 20 cm high. Plants could be properly watered if the soil was dry. The grown siliques were cut off with scissors the day before transformation. The inflorescences of the plants to be transformed were soaked in the above-mentioned Agrobacterium solution for 30 seconds to 1 minute, which was stirred gently during the period. And a layer of liquid film should appear on the infiltrated plant. The transformed plants were cultured in a dark environment for 24 hours, and then taken out and grown in a normal light environment. A second transformation could be performed in the same way a week later.
Seeds were treated with disinfectant for 5 min, washed with sterile water for 5 times and then one part was spread on MS transgenic screening medium (containing 30 μg/mL hygromycin, 100 μg/mL carbenicillin) to screen transgenic seedlings, and the other part was spread on MS medicated medium [containing 250 μg/mL Cefotaxime sodium and 0.3 μM 2,4-D] to screen herbicide-resistant seedlings at mean time. The petri dish spread with seeds was placed at 4° C. for vernalization for 3 days, and taken out to a illumination incubator for cultivation (temperature of 22° C., 16 hours of light, 8 hours of darkness, light intensity of 100-150 μmol/m^2/s, humidity of 75%). After one week, it was observed that the roots of the wild-type control seedlings were not elongated and their growth was inhibited, while the transgenic seedlings had normal root growth, showing drug resistance. The transgenic positive seedlings and herbicide-resistant seedlings were photographed and transplanted into small pots filled with soil for cultivation.
The transgenic lines with the nine vectors, pQY2309, pQY2310, pQY2311, pQY2312, pQY2313, pQY2314, pQY2315, pQY2316 and pQY2317, overexpressing AAD gene in the T2 generation were further tested on plate medium for their resistance to 2,4-D, 2,4-DB sodium and MCPA herbicide. Two events were tested for each transformant.

Molecule	Chromogenic reaction of degrading herbicides in bacteria: Triclopyr [1]	Chromogenic reaction of degrading herbicides in bacteria: 2,4-D [2]	Chromogenic reaction of degrading herbicides in bacteria: MCPA [3]	further results
B1	Yes	Yes	Yes	Chromogenic reaction of degrading herbicides in bacteria: Triclopyr ([1]; listed as D72): slight degradation; Chromogenic reaction of degrading herbicides in bacteria: 2,4-D ([2]; listed as D72): could degrade 2,4-D; also recorded: capable of degrading 2,4-D
B2	–	Yes	NO	Resistance of transgenic Arabidopsis thaliana: 2,4-D (Arabidopsis thaliana): Yes; Chromogenic reaction of degrading herbicides in bacteria: 2,4-D ([2]; listed as D34): red reactions
B3	Yes	Yes	Yes	Chromogenic reaction of degrading herbicides in bacteria: Triclopyr ([1]; listed as D73): slight degradation; Chromogenic reaction of degrading herbicides in bacteria: 2,4-D ([2]; listed as D73): could degrade 2,4-D; also recorded: capable of degrading 2,4-D
B4	Yes	Yes	Yes	Chromogenic reaction of degrading herbicides in bacteria: Triclopyr ([1]; listed as D74): slight degradation; Chromogenic reaction of degrading herbicides in bacteria: 2,4-D ([2]; listed as D74): could degrade 2,4-D; also recorded: capable of degrading 2,4-D
B5	Yes	Yes	Yes	Chromogenic reaction of degrading herbicides in bacteria: Triclopyr ([1]; listed as D76): slight degradation; Chromogenic reaction of degrading herbicides in bacteria: 2,4-D ([2]; listed as D76): could degrade 2,4-D; also recorded: capable of degrading 2,4-D
B6	–	Yes	Yes	Resistance of transgenic Arabidopsis thaliana: 2,4-D (Arabidopsis thaliana): Yes; Resistance of transgenic Arabidopsis thaliana: MCPA (Arabidopsis thaliana): Yes; Chromogenic reaction of degrading herbicides in bacteria: 2,4-D ([2]; listed as D50): could degrade 2,4-D; also recorded: capable of degrading 2,4-D
B7	Yes	Yes	Yes	Chromogenic reaction of degrading herbicides in bacteria: Triclopyr ([1]; listed as D58): slight degradation; Chromogenic reaction of degrading herbicides in bacteria: 2,4-D ([2]; listed as D58): could degrade 2,4-D; also recorded: capable of degrading 2,4-D
